Experimental data as given in IntAct's records for PubMed 22817896.

B1: Receptor-interacting serine/threonine-protein kinase 3 (Homo sapiens), Q9Y572 (parent)
chain: MSCVKLWPSGAPAPLVSIEELENQELVGKGGFGTVFRAQHRKWGYDVAVKIVNSKAISREVKAMASLDNEFVLRLEGVIEKVNWDQDPKPALVTKFMENGSLSGLLQSQCPRPWPLLCRLLKEVVLGMFYLHDQNPVLLHRDLKPSNVLLDPELHVKLADFGLSTFQGGSQSGTGSGEPGGTLGYLAPELFVNVNRKASTASDVYSFGILMWAVLAGREVELPTEPSLVYEAVCNRQNRPSLAELPQAGPETPGLEGLKELMQLCWSSEPKDRPSFQECLPKTDEVFQMVENNMNAAVSTVKDFLSQLRSSNRRFSIPESGQGGTEMDGFRRTIENQHSRNDVMVSEWLNKLNLEEPPSSVPKKCPSLTKRSRAQEEQVPQAWTAGTSSDSMAQPPQTPETSTFRNQMPSPTSTGTPSPGPRGNQGAERQGMNWSCRTPEPNPVTGRPLVNIYNCSGVQVGDNNYLTMQQTTALPTWGLAPSGKGRGLQHPPPVGSQEGPKDPEAWSRPQGWYNHSGK
B2: Receptor-interacting serine/threonine-protein kinase 1 (Homo sapiens), Q13546 (parent)
chain: MQPDMSLNVIKMKSSDFLESAELDSGGFGKVSLCFHRTQGLMIMKTVYKGPNCIEHNEALLEEAKMMNRLRHSRVVKLLGVIIEEGKYSLVMEYMEKGNLMHVLKAEMSTPLSVKGRIILEIIEGMCYLHGKGVIHKDLKPENILVDNDFHIKIADLGLASFKMWSKLNNEEHNELREVDGTAKKNGGTLYYMAPEHLNDVNAKPTEKSDVYSFAVVLWAIFANKEPYENAICEQQLIMCIKSGNRPDVDDITEYCPREIISLMKLCWEANPEARPTFPGIEEKFRPFYLSQLEESVEEDVKSLKKEYSNENAVVKRMQSLQLDCVAVPSSRSNSATEQPGSLHSSQGLGMGPVEESWFAPSLEHPQEENEPSLQSKLQDEANYHLYGSRMDRQTKQQPRQNVAYNREEERRRRVSHDPFAQQRPYENFQNTEGKGTAYSSAASHGNAVHQPSGLTSQPQVLYQNNGLYSSHGFGTRPLDPGTAGPRVWYRPIPSHMPSLHNIPVPETNYLGNTPTMPFSSLPPTDESIKYTIYNSTGIQIGAYNYMEIGGTSSSLLDSTNTNFKEEPAAKYQAIFDNTTSLTDKHLDPIRENLGKHWKNCARKLGFTQSQIDEIDHDYERDGLKEKVYQMLQKWVMREGIKGATVGKLAQALHQCSRIDLLSSLIYVSQN

Variants of: B1
Conditions: with ripk1_human RIPK1, Q13546

| Variant | effect of a mutation on the interaction |
| --- | --- |
| V458E;V460E | decreasing interaction strength |
| Q459D | decreasing interaction strength |
| S456D | decreasing interaction strength |
| G461D | decreasing interaction strength |

The remaining lines, values ahead:

| effect of a mutation on the interaction | Variant |
| --- | --- |
| decreasing interaction strength | D462K |
| decreasing interaction strength | V460D |
| decreasing interaction strength | V458D |
| decreasing interaction strength | G457D |

Variants of: B1
Conditions: with ripk1_human RIPK1, Q13546
Remark: another data set of the same source

| Variant | effect of a mutation on the interaction |
| --- | --- |
| Q459P | decreasing interaction strength |
| G461P | decreasing interaction strength |

Continued, values first:

| effect of a mutation on the interaction | Variant |
| --- | --- |
| decreasing interaction strength | V460P |
| decreasing interaction strength | V458P |

Variants of: B2
Conditions: with ripk3_human RIPK3, Q9Y572

| Variant | effect of a mutation on the interaction |
| --- | --- |
| N545D | decreasing interaction strength |
| I539D | decreasing interaction strength |
| I541D | decreasing interaction strength |
| A543D | decreasing interaction strength |
| G542D | decreasing interaction strength |

Further lines, results first:

| effect of a mutation on the interaction | Variant |
| --- | --- |
| decreasing interaction strength | Q540D |
| decreasing interaction strength | Y544D |
